Experimental data published in the nanobody polyreactivity screen of Harvey et al. (2022).

Test: yeast display, Sf9 membrane polyspecificity reagent, FACS + sequencing; frameworks hold sequencing errors
In short: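 Nanobodies came from a synthetic yeast display library in Saccharomyces cerevisiae BJ5465, induced with galactose for 36–48 hours and stained for 1 hour at 4 °C with 10% biotinylated, detergent-solubilized Sf9 membrane reagent. Cells were enriched on streptavidin microbeads and then FACS-sorted, with low and high (top ~1%) gates set on anti-HA fluorescence for expression and streptavidin fluorescence for reagent binding. Each polyreactivity label reflects the gate a clone came from. Genes were amplified by colony PCR, sequenced by MiSeq 2 × 250 and filtered by CDR length.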

| Sequence | polyreactivity (PSR sort gate) |
| --- | --- |
| QVQLVESGGGLVQAGGSLRLSCAASGRTFASYAMGWNRQPPGKERELFARISKSGGSTYYADSVKGRFTISRDNAKNTVYLQMNSLKPEDTAVYYCAAEYPFEIGYVYYSIDYDYWRQGTQVTVSS | low polyreactivity |
| QVQLVESGGGLVQAGGSLRLSCAASGIIFSVYAMGWYRQAPGKERELVAAISWSGTSTYYADSVKGRFTISRDNAKNTVYLQMNSLKPEDTAVYYCNAKRYRYFGNEYWGQGTQVTVSS | high polyreactivity |
| QVQLVESGGGLVQAGGSLRLSCAASGSIFTYYVRGWYRQAPVKERELVAGISRRGSTYYADSVKGRFTISRDNAKNTVYLQMNSLKQEDTAVYYCAAEPWVGTLYPRVGYWGQGTQVTVSS | low polyreactivity |
| QVQLVESGGGLVQAGGSLRLSCAASGFTIRYYTMGWYRQAPGKERELVAAITWSGGRTYYADSVKGRFTISRDNAKNTVYLQMNSLKPEDTAVYYCAADVTKRASRDYYWGQGTQVTVSS | high polyreactivity |
| QVQLVESGGGLVQAGGSLRLSCAASGSIFPTYAMGWYRQAPGKEWELVAAIRGDGSTNYADSVKGRFTISRDNAKNTVYLQMNSLKPEDTAVSYCAAVSSEYVFRYGGYWGQGTQVTVSS | low polyreactivity |
| QVQLVESRGRLVQAGGTLRLSCAASGNITSVYAMGWYRQAPGNERELVAAISGSGGSTYYADSVKGRFTISRDNAMNTVYLQMNSLKPEDTAVYYCAKGFQYQGNSYGYWGQGSQVTVSS | low polyreactivity |
| QVQLVESGGGLVQAGGSLRLSCAASGRIFGRYAMGWYRQAPGKERELVAAISRRGGTTYYADSVKGRFTISRDNAKNTVYLQMNSLKPEDTAVYYCNADTYGYGFDYWGQGTQVTVSS | high polyreactivity |
| QVQLVESGGGLVQAGGSLRLSCAASGSIFNVYAMGWYRQAPGKERELVAAISSSGARTYYADSVKGRFTISRDNAKNTVYLQMNSLKPEDTAVYYCAARSILIRSGGGYPSVWRNYWGQGTQVTVSS | high polyreactivity |
| QVHLVESGGGLVQAGGSLRLSCAAYGSIFHGNAMGWYRQAPGKERELVAAISWSGDSTYYADSVKGRFTISRDNAKNTVYLHMNSLKPEDTAVYSCNAEWTRDFYEYDYWGQGTQVTVSS | low polyreactivity |
| QVQLVESGGGLVQAGGSLRLSCAASGSTFYENTMGWYRQAPGKERELVAAISVRGGSTYYADSVKGRFTISRDNEKKTVYLQMNRLKPEDTAVYYCAVLDVYRYRMDYSGQGTQVTVSS | low polyreactivity |
| QVQLVESGGGLVQAGGSLRLICAASGRISAFNAMGWYRQAPGKERELVAAINVSGGNTYYADSVKGRFTISRDNAKNTVYLQMNSMKPEDTAVYYCAAERRRWGLDYYYWGQGTQVTVSS | high polyreactivity |
| QVQLVESGGGLVQAGGSLRLSCAASGRTFAFYAMGWYRPAPGKERELVASIRGGGGTNYADSVKGRFTISRDNAKNPVYLQMNSVKPEDTAVYYCAARGYGYRGYYYWGQGTQVTVSS | high polyreactivity |
| QVQLVESGGGLVQAGGSLRLSCAASGFIFLPNDMGWYRQAPGKEREFVAAIDWSGGSTYYADSVKGRFTISRDNAKNTVYLQMNSLKPEDTAVYYCNAEGRRVGFRIDYDYWGQGTQVTVSS | low polyreactivity |
| QVQHVESGGGLVQAGCSLRLSCAASGFTFYSYAMGWYSQTPGKERELVASISRTGGGTYYADSVKGSFTISRDNAKNTVSLQMNSLIPVDTAVYYCNASPNIRVRYYYRKYDYWGQGTQVTVSS | high polyreactivity |
| QVQLVESGGGLVQAGGSLRLSCAASGRIIYAYAMGWYRQAPGKERELVAAITIGGNTNYADSVKGRFTISRDNAKNTVYLQMNSLKPEDTAVYYCNARNYYYPWRGYHVVGSNDLGYWGQGTQVTVSS | low polyreactivity |
| QVQLVESGGGLVQAGGSLRLSCAASGNTFLVNAKGWYRQAPGKERELVATIRRGGSTNYADSVKGRFTISRDNAKNTVYLLMNSLKPEDTAVYYCNADRVGYWSSNMDYWGQGTEVTVSS | low polyreactivity |

| Sequence | polyreactivity (PSR sort gate) |
| --- | --- |
| QVQLVESGGGLVQAGGSLRLSCAASGRIFVNNAMGWYRQAPGKERELVAAISKRGGSTYYADSVKGRFTISRDNAKNSVYLQMNSLKPEDTAVYYSAATPVYSGPYDYWGQGTQVTVSS | high polyreactivity |
| QVQLVESGGGLVQAGGSLRLSCAASGSIYGYTMGWYRPAPGKERELVAAINRRADRTYYADSVKGRYTISRDNAKNTVYLQMNSLKPEDTAVYYCNKGGWYTLGYWGQGTQVTVSS | high polyreactivity |
| QVQHVESGRGLVQAGGSLRLSCAASGGTFNRYAMGWYRQAPGKERELVAAITSSGGSTYYADSVKGRFTISRDNAMNTVYLHMNSLNPEDTAVYYCNAPGFRRLWGLGYDYWGQGTQVTVSS | high polyreactivity |
| QVQLVESGGRLVQAGGSLRLSCAAAAITFYLYAMGRYRQAPGKERELVAAISSSGGSTYYADSVKGRFTISRDNAKNTVYLQINSLKPEDTAVYYCNARRRTVPYRYDYWGQGTQVTVSS | high polyreactivity |
| QVQLVESGGGLVQAGGSLRLSCAASGLTFRYYAMVWYRQAPGKERELVATITRAGRTNYADSVKGRFTISRDNAKNTVYLQMNSLKPEDTAVYYCATKRVLTGFDSWGQGTQVTVSS | high polyreactivity |
| QVQLVESGGGLVQAGGSLRLSCAASGSIFERYAMGWYRPAPGKERELVAGISSDGSTYADSVKGRFTISRDNAKNTVFLQMNSLKPEDTAVYYCAAAAWDPKGSRYDYWGQGTQVTVSS | low polyreactivity |
| QVQLVESGGGLVQAGGSLRLSCAASVSIFISYAMGWYRQAPGKERELVAAISSGGSTNYADSVKGRFTISRDNAKNTVYLQMNSLKPEDTAVYYCAADGWLWSFTGDGWWFDDWGQGTQVTVSS | low polyreactivity |
| QVQLVESGGGLVQAGGSLRLSCAASGFTFYKYALGWYRQAPGKERELVAAISNSGGSTYYADSVKGRFTISRDNAKNTVYLQMNCLKPEDTAVYYCAKLSDSITLYGYWGQGTQVNVSS | high polyreactivity |
| QVQLVESGGGLVQAGGSLRLSCAASGRTFYWNAMGWYRQAPGKERELVAGISRGGGITYYADSVKGRFTISRDNAKYTVYLQMNSLKPEDTAVYYCNSRAGRQLARYGYWGQGTQVTVSS | high polyreactivity |
| QVQLVESGGGLFQAGGSLRLTCAASGITFYYYAMGWYRQAPGKERELVAAISVRGTRTFYADCVKWRFTISRDNAKNTVYLQMNSLKPEDTEVYYCNKSVSNDDGLEYWGQGTQVTVSS | high polyreactivity |
| QVQLVESGGGLVQAGGSLRLSCASSGFTFYYYAMGWYRQAPGKEMELVAAIDTSDGSTYYADSVKGRFTISRDNAKNTVYLQMNSLKPEDTAVYYCAAEVDWVPFLLDYWGQGTQVTVSS | low polyreactivity |
| QVQLVESGGGLVQAGGSLRLSCAPSGRIFSYNTMGWYRQAPGKERELVAAISRGGSTYYADSVKGRFTISRDNAKNTVYLQMNSLKPEDTAVYYCNALLPPGSRKYNYWGQGTQVTVSS | high polyreactivity |
| QVQLVESGGGLVQAGGSLRLSGAASGFTFGRNAMGGYRQAPGKEREFVAAISKSATSKYYADSVKGRFTISRDNAKNTVYLQMNSLKPEDTSVYYCARTNYAKRWDFDYWGQGTQVTVSS | low polyreactivity |
| QVQLVESGGGLDQAGGSLRLSCAASGSIFDSYVMGWYRQAPGKERDLVAAFSRGGSTYYADSVKGRFTISRDNAQNTVYLQINSLKPEDTSVYYCAAGYRVHSPDDCYWGQGTQVTVSS | low polyreactivity |
| QVQLVESGGGLVQAGGSLRLSCAASGRTFNAYTMGSYRPAPGKERELVAAITSSGGNTYYADSVKGRFTISRDNAKNTVYLQMNSLKPEDTAVYYCNTVYLYGTHDYWGQGTQVTVSS | low polyreactivity |
| QVQLVESGGGLVQAGGSLRLSCAASGRIFPPNAMGWYRQGPGKERELVAGITSSGDTTYYADSVKGRFTISRDHAKKTVNLQMHSLKPEDTAVNYCAKDDVYADDRSALFDYWGQGTQVTVSS | low polyreactivity |
